Experimental data as given in US20250144178A1, “PHARMACEUTICAL COMPOSITION FOR CANCER TREATMENT COMPRISING FUSION PROTEIN INCLUDING IL-12 AND ANTI-FAP ANTIBODY AND ANTICANCER AGENT” (KANAPH THERAPEUTICS INC., priority 2022, published 2025).

T1: recombinant mouse FAP (Mus musculus, UniProt P97321)
T1 sequence (P97321 1-761): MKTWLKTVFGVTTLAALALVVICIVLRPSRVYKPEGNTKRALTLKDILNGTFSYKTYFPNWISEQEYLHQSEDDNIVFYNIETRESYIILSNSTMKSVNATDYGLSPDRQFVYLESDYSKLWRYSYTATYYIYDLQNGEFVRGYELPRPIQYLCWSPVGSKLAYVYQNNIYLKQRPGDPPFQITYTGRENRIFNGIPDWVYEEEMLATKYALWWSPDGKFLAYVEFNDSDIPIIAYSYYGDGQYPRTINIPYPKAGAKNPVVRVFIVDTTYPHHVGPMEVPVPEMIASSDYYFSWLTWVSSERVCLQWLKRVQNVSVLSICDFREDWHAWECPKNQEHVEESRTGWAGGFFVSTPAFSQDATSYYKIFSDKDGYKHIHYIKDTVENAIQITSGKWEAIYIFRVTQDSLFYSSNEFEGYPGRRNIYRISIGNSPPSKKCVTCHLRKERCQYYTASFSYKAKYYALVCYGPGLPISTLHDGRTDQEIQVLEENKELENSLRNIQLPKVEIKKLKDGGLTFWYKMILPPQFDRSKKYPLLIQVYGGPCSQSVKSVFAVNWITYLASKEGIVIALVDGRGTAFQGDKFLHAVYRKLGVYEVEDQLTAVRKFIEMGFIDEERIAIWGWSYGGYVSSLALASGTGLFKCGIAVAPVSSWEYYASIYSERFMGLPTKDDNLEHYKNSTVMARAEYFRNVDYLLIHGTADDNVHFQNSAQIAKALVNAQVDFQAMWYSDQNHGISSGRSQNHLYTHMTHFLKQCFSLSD

B1: T1.02m: K&H bispecific: anti-mu FAP/mu IL-12 mut1, mu IgG2a DANG (seq18, seq19, seq21) (antibody)
heavy: QVQLQQSGAELARPGASVNLSCKASGYTFTNNGINWLKQRTGQGLEWIGEIYPRSTNTLYNEKFKGKATLTADRSSNTAYMELRSLTSEDSAVYFCARTLTAPFAFWGQGTLVTVSAAKTTAPSVYPLAPVCGDTTGSSVTLGCLVKGYFPEPVTLTWNSGSLSSGVHTFPAVLQSDLYTLSSSVTVTSSTWPSQSITCNVAHPASSTKVDKKIEPRGPTIKPCPPCKCPAPNLLGGPSVFIFPPKIKDVLMISLSPIVTCVVVAVSEDDPDVQISWFVNNVEVHTAQTQTHREDYGSTLRVVSALPIQHQDWMSGKEFKCKVNNKDLPAPIERTISKPKGSVRAPQVYVLPPPEEEMTKKQVTLWCMVTDFMPEDIYVEWTNNGKTELNYKNTEPVLDSDGSYFMYSKLRVEKKNWVERNSYSCSVVHEGLHNHHTTKSFSRTPGK
light: QIVLTQSPAIMSASPGEKVTMTCSASSGVNFMHWYQQKSGTSPKRWIFDTSKLASGVPARFSGSGSGTSYSLTISSMEAEDAATYYCQQWSFNPPTFGGGTKLEIKRADAAPTVSIFPPSSEQLTSGGASVVCFLNNFYPKDINVKWKIDGSERQNGVLNSWTDQDSKDSTYSMSSTLTLTKDEYERHNSYTCEATHKTSTSPIVKSFNRNEC
chain: MWELEKDVYVVEVDWTPDAPGETVNLTCDTPEEDDITWTSDQRHGVIGSGKTLTITVKEFLDAGQYTCHKGGETLSHSHLLLHKKENGIWSTEILKNFKNKTFLKCEAPNYSGRFTCSWLVQRNMDLKFNIKSSSSSPDSRAVTCGMASLSAEKVTLDQRDYEKYSVSCQEDVTCPTAEETLPIELALEARQQNKYENYSTSFFIRDIIKPDPPKNLQMKPLKNSQVEVSWEYPDSWSTPHSYFSLKFFVRIQRAKEKMAETEEGCNQKGAFLVEKTSTEVQCKGGNVCVQAQDRYYNSSCSKWACVPCRVRSGGGGSGGGGSGGGGSRVIPVSGPARCLSQSRNLLKTTDDMVKTAREKLKHYSCTAEDIDHEDITRDQTSTLKTCLPLELHKNESCLATRETSSTTRGSCLPPQKTSLMMTLCLGSIYEDLKMYQTEFQAINAALQNHNHQQIILDKGMLVAIDELMQSLNHNGETLRQKPPVGEADPYRVKMKLCILLHAFSTRVVTINRVMGYLSSAGGGGSGGGGSEPRGPTIKPCPPCKCPAPNLLGGPSVFIFPPKIKDVLMISLSPIVTCVVVAVSEDDPDVQISWFVNNVEVHTAQTQTHREDYGSTLRVVSALPIQHQDWMSGKEFKCKVNNKDLPAPIERTISKPKGSVRAPQVYVLPPPEEEMTKKQVTLSCAVTDFMPEDIYVEWTNNGKTELNYKNTEPVLDSDGSYFMVSKLRVEKKNWVERNSYSCSVVHEGLHNHHTTKSFSRTPGK
B2: T1.12m: K&H: anti-mu FAP/null, mu IgG2a DANG (seq18, seq19, seq29); used as control (antibody)
heavy: B1 heavy
light: B1 light
chain: EPRGPTIKPCPPCKCPAPNLLGGPSVFIFPPKIKDVLMISLSPIVTCVVVAVSEDDPDVQISWFVNNVEVHTAQTQTHREDYGSTLRVVSALPIQHQDWMSGKEFKCKVNNKDLPAPIERTISKPKGSVRAPQVYVLPPPEEEMTKKQVTLSCAVTDFMPEDIYVEWTNNGKTELNYKNTEPVLDSDGSYFMVSKLRVEKKNWVERNSYSCSVVHEGLHNHHTTKSFSRTPGK

Key:
[1] = test system: CT26 colorectal cancer with mouse FAP overexpressing NIH-3T3 cells; test: Tumor growth inhibition, CT26 co-injected with mouse FAP overexpressing NIH-3T3; assay type: in vivo, BALB/c mice; settings: for tumor growth inhibitory ability compared to control: 14th day, control 50 μg T1.24m
Method: Specifically, the mouse FAP overexpressing NIH-3T3 cells and the CT26 cells in culture were resuspended in Hanks' Balanced salt solution (HBSS, Gibco) at a concentration of 1×10^6 cells/50 μl, respectively, and the cells were mixed in a 1:1 ratio, and then 100 μl per each mouse was transplanted into the subcutaneous region of the right flank of 6-week-old BALB/c mice using a 1 cc syringe (25G) to obtain an FAP-expressing fibroblast co-injection animal model. The tumor size was measured using a digital vernier caliper by measuring the short axis and long axis of the tumor, and the tumor size was measured twice a week using the calculation formula of (short axis, mm) 2×(long axis, mm)×0.5.
Next, for drug efficacy evaluation, when the size of the tumor reached 100 mm^3, the mice were randomly divided into groups. Each experimental group consisted of 10 animals, and as a control, each 100 μl of 50 μg of T1.24m was intraperitoneally administered three times at an interval of 3 days. In the test group, each 100 μl of 10 μg and 50 μg of T1.02m and 50 μg of T1.01m, respectively, were intraperitoneally administered three times at an interval of 3 days to evaluate the tumor growth inhibitory ability.

[2] = test system: FAP-overexpressing mouse colorectal cancer CT26; test: Tumor growth inhibition by IL-12 mutation, FAP-overexpressing CT26, single i.v. dose; assay type: in vivo, BALB/c mice; settings: 10 μg i.v. once, 15 days after administration, control PBS, FIG. 28
Method: In order to evaluate the change in IL-12 activity according to the presence and extent of amino acid mutation, FAP-overexpressing mouse colorectal cancer CT26 was prepared by resuspending in PBS at a concentration of 5×10^5 cells/100 μl, and the tumor growth inhibitory ability was evaluated in a tumor animal model prepared by transplantation of the cells into 5-week-old female BALB/c mice.
Specifically, when the size of the tumor in the model reached 100 mm^3, the mice were randomly divided into groups. 100 μl of phosphate buffered saline (PBS) was administered once via tail vein injection of the control, and each of T1.01m, T1.02m and T1.03m was intravenously administered once at a dose of 10 μg.

HEK-Blue IL-12 cells = test: Signaling ability in IL-12 recognizing cells (STAT4 inducible SEAP reporter); assay type: cell-based, human; settings: serial dilution from 4 nM, 24 hours, FIG. 18
Method: The HEK-Blue IL-12 cell line transformed with the IL-12 receptor gene and the STAT4 inducible SEAP reporter gene into HEK293 cells, which are human embryonic kidney fibroblasts, was obtained from Invivogen (San Diego, USA). The HEK-Blue IL-12 cells were maintained in DMEM (GIBCO) containing 10% FBS (GIBCO), 100 μg/ml Normocin and 1×HEK-Blue selection.
Specifically, the HEK-Blue IL-12 cell line, which is an IL-12 recognizing cell, was diluted to 2.8×10^5 cells/ml and dispensed at 180 μl/well. Recombinant human IL-12, T1.01m, T1.02m, T1.03m and T1.12m were suspended at 4 nM and diluted by serial dilution. HEK-Blue IL-12 cells were treated with the diluted recombinant human IL-12, T1.01m, T1.02m, T1.03m and T1.12m. After 24 hours of treatment, the cell supernatant was collected and mixed with QUANTI-Blue Solution (Invivogen) in a 96-well plate. The reporter expression level was measured at 620 nm using a spectrophotometer (Thermo Fisher).

recombinant mouse FAP = target: T1, recombinant mouse FAP; test: Surface plasmon resonance binding to recombinant mouse FAP; settings: SPR, 2 μg/ml protein, FIGS. 13 and 14
Method: The surface of the CM5 chip was activated with a 1:1 mixture of […] (N-hydroxysuccinimide) and […] (1-Ethyl-3-(3-dimethylaminopropyl) carbodiimide), and 25 μg/ml of anti-mouse IgG (Fc) antibody was immobilized for 400 seconds at a rate of 10 μl/min. The remaining active ester groups were blocked with 1 M ethanolamine. T1.01m, T1.02m and T1.03m were diluted to 2 μg/ml and reacted on the CM5 chip immobilized with the anti-mouse IgG (Fc) antibody. The recombinant mouse FAP was diluted to 200 nM in 1×HBS-EP+buffer solution and diluted by serial dilution. The diluted recombinant mouse FAP was reacted at a rate of 30 μl/min. The association and dissociation times were 180 seconds and 400 seconds, respectively. After the dissociation, stabilization was performed for 60 seconds, and then a regeneration was performed for 30 seconds with a 10 mM glycine pH 1.5 solution at a rate of 30 μl/min.

[3] = test system: FAP-overexpressing CT26 cells; test: Tumor growth inhibition, FAP-overexpressing CT26 model, repeated i.p. dosing; assay type: in vivo, BALB/c mice; settings: 18 days after administration, control 50 μg T1.24m
Method: In order to prepare an mouse FAP-expressing tumor animal model, FAP overexpression was induced in CT26, a mouse colorectal cancer cell line. Specifically, the FAP-overexpressing CT26 cells in culture were resuspended in Hanks' Balanced salt solution (HBSS, Gibco), and then each 100 μl of 1×10^6 tumor cells per each mouse was transplanted into the subcutaneous region of the left dorsal side of 6-week-old BALB/c mice using a 1 cc syringe (25G) to obtain a mouse FAP-expressing colorectal cancer animal model. The tumor size was measured using a digital vernier caliper by measuring the short axis and long axis of the tumor, and the tumor size was measured twice a week using the calculation formula of (short axis, mm) 2×(long axis, mm)×0.5.
Next, for drug efficacy evaluation, when the size of the tumor reached 100 mm^3, the mice were randomly divided into groups. Each experimental group consisted of 8 animals, and as a control, each 100 μl of 50 μg of T1.24m was intraperitoneally administered four times at an interval of 3 days. In the test group, each 100 μl of 10 μg and 100 μg of T1.01m, and 2 μg, 10 μg and 100 μg of T1.02m, respectively, were intraperitoneally administered four times at an interval of 3 days to evaluate the tumor growth inhibitory ability.

Molecule	tumor growth inhibitory ability compared to control ([1]; 10 μg i.p. three times at an interval of 3 days)	tumor growth inhibitory ability compared to control ([1]; 50 μg i.p. three times at an interval of 3 days)	complete response ([1]; 24th day after administration, FIG. 24)	tumor growth inhibitory ability compared to the control [2]	IL-12 recognition / STAT4 reporter gene expression (620 nm absorbance) (HEK-Blue IL-12 cells)	Binding to recombinant mouse FAP (recombinant mouse FAP)	tumor growth inhibitory ability compared to control ([3]; 2 μg i.p. four times at an interval of 3 days)	tumor growth inhibitory ability compared to control ([3]; 10 μg i.p. four times at an interval of 3 days)	tumor growth inhibitory ability compared to control ([3]; 100 μg i.p. four times at an interval of 3 days)
B1	93.2%	92.7%	subjects in complete response were observed	excellent tumor growth inhibitory ability	IL-12 was recognized, and STAT4 expressed a reporter gene by inducing phosphorylation	may bind to recombinant mouse FAP to specifically target FAP	80.1%	90.5%	89.8%
B2					did not recognize IL-12				
